Numbering of substitutions follows the chain as printed. In names and notes the source's numbering stands.
B1: CcmK2 from Synechococcus elongatus PCC 7942 with C-terminal His6 tag (K2^-H Syn7942) (natural protein, Synechococcus elongatus PCC7942, UniProt Q03511 1-102, looked up)
chain: MPIAVGMIETLGFPAVVEAADAMVKAARVTLVGYEKIGSGRVTVIVRGDVSEVQASVSAGLDSAKRVAGGEVLSHHIIARPHENLEYVLPIRYTEAVEQFRM
notes: also called K2^-H 7942; Syn7942 K2^-H; source: E. coli BL21 (DE3), purified (TALON cobalt IMAC); not shown: His6, C-terminal, kept
B2: CcmK1 from Synechocystis sp. PCC6803, TEV-proteolysis product of K1^-TH (K1^-) (natural protein, UniProt P72760 1-111, looked up)
chain: MSIAVGMIETLGFPAVVEAADSMVKAARVTLVGYEKIGSGRVTVIVRGDVSEVQASVTAGIENIRRVNGGEVLSNHIIARPHENLEYVLPIRYTEAVEQFREIVNPSIIRR
notes: CcmK1, Synechocystis sp; PCC6803, full-length gene, codon-optimized for E. coli; Measured mass indicated loss of the first Met residue; also called untagged K1^- 6803; Syn6803 K1^-; source: E. coli BL21 (DE3), purified (TALON cobalt IMAC), tag removed with turbo TEV protease; not shown: His4, C-terminal, cleaved
B3: CcmK4 from Synechocystis sp. PCC6803, TEV-proteolysis product of K4^-TH (K4^-) (natural protein, UniProt P73407 1-112, looked up)
chain: MSAQSAVGSIETIGFPGILAAADAMVKAGRITIVGYIRAGSARFTLNIRGDVQEVKTAMAAGIDAINRTEGADVKTWVIIPRPHENVVAVLPIDFSPEVEPFREAAEGLNRR
notes: CcmK4, Synechocystis sp; PCC6803, full-length gene, codon-optimized for E. coli; Sample partly degraded by proteolysis (species of similar but not identical mass in native MS); Measured mass indicated loss of the first Met residue; also called Syn6803 K4^-; source: E. coli BL21 (DE3), purified (TALON cobalt IMAC), tag removed with turbo TEV protease; not shown: His4, C-terminal, cleaved
B4: CcmK4 from Synechocystis sp. PCC6803, TEV-proteolysis product of ^HT-K4 (^-K4) (natural protein, UniProt P73407 1-112, looked up)
chain: B3 chain
notes: CcmK4, Synechocystis sp; PCC6803, full-length gene, codon-optimized for E. coli; also called Syn6803 -K4; source: E. coli BL21 (DE3), purified (TALON cobalt IMAC), tag removed with turbo TEV protease; not shown: His4, N-terminal, cleaved
B5: CcmK1 from Synechocystis sp. PCC6803 with C-terminal TEV site and His4 tag (K1^-TH) (natural protein, UniProt P72760 1-111, looked up)
chain: B2 chain
notes: CcmK1, Synechocystis sp; PCC6803, full-length gene, codon-optimized for E. coli; A TEV protease recognition site stands between protein and His4 tag; also called K1^-TH 6803; CcmK1 Syn6803; source: E. coli BL21 (DE3), purified (TALON cobalt IMAC); not shown: His4, C-terminal, kept
B6: CcmK4 from Synechocystis sp. PCC6803 with N-terminal His4 tag and TEV site (^HT-K4) (natural protein, UniProt P73407 1-112, looked up)
chain: B3 chain
notes: CcmK4, Synechocystis sp; PCC6803, full-length gene, codon-optimized for E. coli; A TEV site stands between tag and protein; source: E. coli BL21 (DE3), purified (TALON cobalt IMAC); not shown: His4, N-terminal, kept
B7: CcmK4 from Synechocystis sp. PCC6803 with C-terminal TEV site and His4 tag (K4^-TH) (natural protein, UniProt P73407 1-112, looked up)
chain: B3 chain
notes: CcmK4, Synechocystis sp; PCC6803, full-length gene, codon-optimized for E. coli; source: E. coli BL21 (DE3), purified (TALON cobalt IMAC); not shown: His4, C-terminal, kept
B8: NIR K2^-TH: triple mutant of CcmK2 Syn6803 with A63 A64 N65 replaced by NIR of CcmK1 (natural protein, Synechocystis sp. PCC6803, UniProt P72761 1-103, looked up)
chain: MSIAVGMIETRGFPAVVEAADSMVKAARVTLVGYEKIGSGRVTVIVRGDVSEVQASVSAGIENIRRVNGGEVLSTHIIARPHENLEYVLPIRYTEEVEQFRTY
notes: CcmK2, Synechocystis sp; PCC6803, as K2^-TH with residues 63-65 AAN replaced by NIR; TEV site between protein and tag as in K2^-TH; also called N^63IR K2^-TH 6803; source: E. coli BL21 (DE3), purified (TALON cobalt IMAC); not shown: His4, C-terminal, kept
B9: R28A/R80A double mutant of K1^-TH (CcmK1 Syn6803) (natural protein, Synechocystis sp. PCC6803, UniProt P72760 1-111, looked up)
chain: B2 chain with R28A, R80A
notes: CcmK1, Synechocystis sp; PCC6803, as K1^-TH with R28A and R80A; TEV site between protein and tag as in K1^-TH; source: E. coli BL21 (DE3), purified (TALON cobalt IMAC); not shown: His4, C-terminal, kept
B10: D49A mutant of K1^-TH (CcmK1 Syn6803) (natural protein, Synechocystis sp. PCC6803, UniProt P72760 1-111, looked up)
chain: B2 chain with D49A
notes: CcmK1, Synechocystis sp; PCC6803, as K1^-TH with D49A; TEV site between protein and tag as in K1^-TH; source: E. coli BL21 (DE3), purified (TALON cobalt IMAC); not shown: His4, C-terminal, kept
B11: R28A mutant of K1^-TH (CcmK1 Syn6803) (natural protein, Synechocystis sp. PCC6803, UniProt P72760 1-111, looked up)
chain: B2 chain with R28A
notes: CcmK1, Synechocystis sp; PCC6803, as K1^-TH with R28A; TEV site between protein and tag as in K1^-TH; source: E. coli BL21 (DE3), purified (TALON cobalt IMAC); not shown: His4, C-terminal, kept
B12: R80A mutant of K1^-TH (CcmK1 Syn6803) (natural protein, Synechocystis sp. PCC6803, UniProt P72760 1-111, looked up)
chain: B2 chain with R80A
notes: CcmK1, Synechocystis sp; PCC6803, as K1^-TH with R80A; TEV site between protein and tag as in K1^-TH; source: E. coli BL21 (DE3), purified (TALON cobalt IMAC); not shown: His4, C-terminal, kept
B13: AAN K1^-TH: triple mutant of CcmK1 Syn6803 with N63 I64 R65 replaced by AAN of CcmK2 (natural protein, Synechocystis sp. PCC6803, UniProt P72760 1-111, looked up)
chain: B2 chain with N63A, I64A, R65N
notes: CcmK1, Synechocystis sp; PCC6803, as K1^-TH with residues 63-65 NIR replaced by AAN; TEV site between protein and tag as in K1^-TH; also called A^63AN K1^-TH 6803; source: E. coli BL21 (DE3), purified (TALON cobalt IMAC); not shown: His4, C-terminal, kept

Molecular target: the molecule itself
Assay: native MS; nano-ESI Q-ToF, positive ion mode, 150 mM ammonium acetate pH 8, soft ionization; tandem MS/MS (CID) of hexamer ions gives monomers and pentamers; oligomer of the protein with itself

Protein	stoichiometry N
B1	6
B2	6
B3	6
B4	6

Molecular target: the molecule itself
Assay: SEC; Beckman Ultraspherogel SEC2000 column, 20 mM Tris-HCl, 300 mM NaCl, pH 7; size by comparison with calibration standards; oligomer of the protein with itself

Protein	stoichiometry N
B5	6
B6	6
B7	6

Molecular target: the molecule itself
Assay: AFM imaging; purified protein adsorbed on freshly cleaved mica, imaged in buffer in contact mode at ambient temperature; 10 mM NaPi, MES or Tris, 300 mM NaCl, pH 5.0 to 8.0, some with 0.5 mM additives; hexamers tiling into 2D assemblies

Protein	binding result
B8	binds
B9	binds
B10	binds
B11	binds
B12	binds
B13	binds

Reference: PMC5608322, “Spontaneous non-canonical assembly of CcmK hexameric components from β-carboxysome shells of cyanobacteria” (PLoS ONE, 2017)
